From PMC8740702

Assays:
[1] = molecular target: X. citri VirD4 all-alpha domain (VirD4AAD) (Xanthomonas citri); assay: ITC
[2] = molecular target: X. citri VirD4 all-alpha domain (VirD4AAD) (Xanthomonas citri); assay: SEC-MALS

Substance	Kd [1] [µM]	stoichiometry N [2]
XAC2609_(XVIPCD) H315A/P316A/D317A (from UniProt A0AAI7ZGC7 311-431) (domain or fragment)	1.2	
full-length X-Tfe^XAC2609 (from UniProt A0AAI7ZGC7 1-431) (natural protein)	0.4	
XAC2609_(XVIPCD)Δ20 (residues 311–411) (from UniProt A0AAI7ZGC7 311-411) (domain or fragment)		1
X-Tfe^XAC2609 XVIPCD (XAC2609_(XVIPCD), residues 311–431) (from UniProt A0AAI7ZGC7 311-431) (domain or fragment)		1
XAC2609_(XVIPCD) D363A (from UniProt A0AAI7ZGC7 311-431) (domain or fragment)	29	
XAC2609_(XVIPCD) D383A/P384A (from UniProt A0AAI7ZGC7 311-431) (domain or fragment)	28	
